We go through two molecules from article PMC8712518.

What is called Kd is the constant that tells how readily two partners part at equilibrium. By koff is commonly meant the rate constant with which the complex falls apart. As usually defined, the kon is a measure of how fast the partners come together.

In assay [1] the target is DnaK75-RNC, ribosome-nascent-chain complex carrying a 75 amino acid-long nascent chain of DnaK (not stated | E. coli) (UniProt P0A6Y8).
Assay [2] deals with RNaseH75-RNC, ribosome-nascent-chain complex carrying a 75 amino acid-long nascent chain of RNaseH (not stated | E. coli) (UniProt P0A7Y4).
For assay [3], the target named is TolB75-RNC, formylated ribosome-nascent-chain complex carrying the 75 N-terminal amino acids of TolB (not stated | E. coli) (UniProt P0A855).
For assay [4], the target named is proOmpA75-RNC, ribosome-nascent-chain complex carrying a 75 amino acid-long nascent chain of proOmpA (not stated | E. coli) (UniProt P0A910).
In assay [5] the target is vacant 70S ribosomes from E. coli MRE600 (E. coli). Kind of assay: fluorescence polarisation; equilibrium titration of PDF(Bpy) (200 nM) with 70S ribosomes; fluorescence anisotropy; 10 °C; corrected for light scattering; hyperbolic fit. Background: In fluorescence polarisation assays a small probe gives low polarisation when free and higher when bound to something large.
For assay [6], the target named is TolB75-RNC after deformylation of the nascent chain by PDF (not stated | E. coli) (UniProt P0A855). Kind of assay: stopped-flow fluorescence kinetics (chase); preformed 70S-PDF(Bpy) or RNC-PDF(Bpy) complex mixed with excess unlabeled PDF (15 µM); Bodipy fluorescence; buffer A; 10 °C; single-exponential fit.
In assay [7] the target is vacant 70S ribosomes from E. coli MRE600 (E. coli). Described as above.
Assay [8] deals with TolB75-RNC, formylated ribosome-nascent-chain complex carrying the 75 N-terminal amino acids of TolB (not stated | E. coli) (UniProt P0A855). Briefly: stopped-flow fluorescence kinetics (association); PDF(Bpy) (300 nM) rapidly mixed with 70S ribosomes or TolB75-RNC (420 nM); buffer A; 10 °C; single-exponential fit, apparent rate at one concentration.
Assay [9] has as its target vacant 70S ribosomes from E. coli MRE600 (E. coli). The assay is described as above.
Assay [10] has the same target. Briefly: stopped-flow fluorescence kinetics (titration, global fit); PDF(Bpy) (100 nM) mixed with 70S ribosomes (0.5-2 µM); buffer A; 10 °C; global fit to a one-step binding model in KinTek Explorer; Kd,calc = k-1/k1.
For assay [11] the target is unchanged. Briefly: stopped-flow fluorescence kinetics, extrapolated; rate constants measured at 10 °C, extrapolated to 37 °C by Eq. 3 with single-turnover deformylation of TolB75-RNC as the reference; Kd,calc from the extrapolated rate constants.

UniProt P0A7Y4, sequence (P0A7Y4 whole entry, looked up, one chain of several): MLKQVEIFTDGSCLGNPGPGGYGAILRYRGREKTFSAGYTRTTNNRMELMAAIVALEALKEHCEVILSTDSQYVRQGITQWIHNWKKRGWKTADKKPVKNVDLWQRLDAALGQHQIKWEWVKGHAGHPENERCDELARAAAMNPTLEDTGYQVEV
UniProt P0A6Y8, sequence (P0A6Y8 whole entry, looked up, one chain of several): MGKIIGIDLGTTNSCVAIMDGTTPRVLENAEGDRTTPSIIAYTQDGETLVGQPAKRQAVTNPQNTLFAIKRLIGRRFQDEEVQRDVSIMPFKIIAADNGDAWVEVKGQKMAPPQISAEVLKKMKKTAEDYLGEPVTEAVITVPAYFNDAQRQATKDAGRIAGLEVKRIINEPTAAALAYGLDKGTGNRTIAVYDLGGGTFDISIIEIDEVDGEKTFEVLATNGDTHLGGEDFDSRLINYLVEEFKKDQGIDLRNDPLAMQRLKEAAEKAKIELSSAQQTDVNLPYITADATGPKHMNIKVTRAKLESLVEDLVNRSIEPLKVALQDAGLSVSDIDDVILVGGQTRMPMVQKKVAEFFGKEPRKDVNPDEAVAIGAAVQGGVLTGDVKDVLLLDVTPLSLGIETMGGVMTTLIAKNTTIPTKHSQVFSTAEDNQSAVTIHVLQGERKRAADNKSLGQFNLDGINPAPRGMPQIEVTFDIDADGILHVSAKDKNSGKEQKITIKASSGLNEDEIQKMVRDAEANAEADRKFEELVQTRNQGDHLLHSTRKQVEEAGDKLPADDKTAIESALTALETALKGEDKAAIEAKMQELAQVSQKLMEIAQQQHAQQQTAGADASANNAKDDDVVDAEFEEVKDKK
UniProt P0A910, sequence (P0A910 whole entry, looked up, one chain of several): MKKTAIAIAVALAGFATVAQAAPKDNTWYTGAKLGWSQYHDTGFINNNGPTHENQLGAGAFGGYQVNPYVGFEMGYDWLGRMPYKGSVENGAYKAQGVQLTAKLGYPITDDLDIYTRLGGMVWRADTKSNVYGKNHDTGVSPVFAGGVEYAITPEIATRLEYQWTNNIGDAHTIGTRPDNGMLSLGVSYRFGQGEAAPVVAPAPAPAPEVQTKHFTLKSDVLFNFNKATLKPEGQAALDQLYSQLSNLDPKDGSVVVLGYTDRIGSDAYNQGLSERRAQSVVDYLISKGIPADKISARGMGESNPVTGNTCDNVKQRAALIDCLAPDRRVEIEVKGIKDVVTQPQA

B1: peptide deformylase (PDF), unlabeled, with C-terminal His6-tag (enzyme)
chain: MSVLQVLHIPDERLRKVAKPVEEVNAEIQRIVDDMFETMYAEEGIGLAATQVDIHQRIIVIDVSENRDERLVLINPELLEKSGETGIEEGCLSIPEQRALVPRAEKVKIRALDRDGKPFELEADGLLAICIQHEMDHLVGKLFMDYLSPLKQQRIRQKVEKLDRLKARA
Consider B1, for which the KM of nascent-chain deformylation by PDF, multiple turnover, 37 °C (TLC of f[35S]Met and [35S]Met) in [1] came to 0.5 µM; in assay [2], 0.6 µM; in assay [3], 0.25 µM; in assay [4], 0.3 µM.

B2: PDF(Bpy), peptide deformylase labelled at the C-terminus with Bodipy-FL (enzyme)
chain: B1 chain
modifications: Bodipy-FL on the C-terminal peptide CSDSK-Bpy
For B2, the Kd in assay [5] is 2100 nM; in assay [10], 2100 nM; in [11], 2000 nM. The koff is 27 s⁻¹ in [6], 33 s⁻¹ in [7], 29 s⁻¹ in [10] and 70 s⁻¹ in assay [11]. Moreover, the apparent rate of binding at 420 nM RNC in assay [8] worked out at 40 s⁻¹. Besides, the apparent rate of binding at 420 nM 70S ribosomes in assay [9] was 44 s⁻¹. The kon is 1.4e+07 M⁻¹ s⁻¹ in [10] and 4e+07 M⁻¹ s⁻¹ in assay [11].
